Test results from article PMC9352680, “A comprehensive thermodynamic model for RNA binding by the Saccharomyces cerevisiae Pumilio protein PUF4”.

T1: PUF4 RNA-binding domain (Saccharomyces cerevisiae, UniProt P25339 537-888)
T1 sequence: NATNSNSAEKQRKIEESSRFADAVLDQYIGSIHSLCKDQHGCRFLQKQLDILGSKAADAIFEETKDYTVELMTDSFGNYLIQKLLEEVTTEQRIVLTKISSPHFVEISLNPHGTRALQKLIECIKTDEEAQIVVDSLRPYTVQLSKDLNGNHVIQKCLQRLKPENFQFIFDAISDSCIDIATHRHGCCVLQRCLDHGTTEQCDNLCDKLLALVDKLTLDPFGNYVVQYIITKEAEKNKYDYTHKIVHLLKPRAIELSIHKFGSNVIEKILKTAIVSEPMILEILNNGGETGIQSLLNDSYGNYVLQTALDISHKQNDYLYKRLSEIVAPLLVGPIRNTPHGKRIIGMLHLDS


Biological target: T1, PUF4 RNA-binding domain
Assay: Mg; RNA-MaP; 20 mM Na-HEPES pH 7.4, 30 mM KOAc, 0.75 mM MgCl2, 0.1% Tween-20, 5% glycerol, 0.1 mg/mL BSA, 2 mM DTT; 25 C; 0.0125-409.6 nM protein
Details: tags: N-His6-TEV cleaved; C-SNAP kept, Cy3B-labelled; label: tethered on chip by stalled RNA polymerase

Row | Binder | Kd
1 | UCUCUUUGUAUAAACUCUCUU (ssRNA) [Ic_S1_P4E.1_K4.1_C4.1_H4.1_A4.1_[T7A]_F4.1_[T8A]_[A9C]_T4.1] | 70 nM
2 | UCUCUUUGUAAUACUCUCUCUU (ssRNA) [Ic_S1_P5E.1_K5.1_C5.1_H5.1_A5.1_[T5A]_F5.1_[T8C]_[A10C]_T5.1] | 642 nM
3 | UCUCUUUGUAUUACAUUCUCUU (ssRNA) [Ic_S1_P5E.1_K5.1_C5.1_H5.1_A5.1_F5.1_[T8C]_[T9A]_[A10T]_T5.1] | 121 nM
4 | UCUCUUUGUACGUCCCUCUCUU (ssRNA) [Ic_S1_P5E.1_K5.1_C5.1_H5.1_A5.1_[T5C]_[T6G]_[A7T]_F5.1_[T8C]_[T9C]_[A10C]_T5.1] | 394 nM
5 | UCUCUUUGUAUAUCGCUCUCUU (ssRNA) [Ic_S1_P5E.1_K5.1_C5.1_H5.1_A5.1_[T6A]_[A7T]_F5.1_[T8C]_[T9G]_[A10C]_T5.1] | 27.4 nM
6 | UCUCUUUGUAUAAAUUCUCUU (ssRNA) [Ic_S1_P4E.1_K4.1_C4.1_H4.1_A4.1_[T7A]_F4.1_[T8A]_[A9T]_T4.1] | 67.2 nM
7 | UCUCUUUGUAUCUUAGUCUCUU (ssRNA) [Ic_S1_P5E.1_K5.1_C5.1_H5.1_A5.1_[T6C]_[A7T]_F5.1_[T9A]_[A10G]_T5.1] | 3.71 nM
8 | UCUCUUUGUACCCAACUCUCUU (ssRNA) [Ic_S1_P5E.1_K5.1_C5.1_H5.1_A5.1_[T5C]_[T6C]_[A7C]_F5.1_[T8A]_[T9A]_[A10C]_T5.1] | 836 nM
9 | UCUCUUUGUAAUCACCUCUCUU (ssRNA) [Ic_S1_P5E.1_K5.1_C5.1_H5.1_A5.1_[T5A]_[A7C]_F5.1_[T8A]_[T9C]_[A10C]_T5.1] | 1200 nM
10 | UCUCUUUGUACAUUAAUCUCUU (ssRNA) [Ic_S1_P5E.1_K5.1_C5.1_H5.1_A5.1_[T5C]_[T6A]_[A7T]_F5.1_[T9A]_T5.1] | 0.904 nM
11 | UCUCUUUGUAACCCCAUCUCUU (ssRNA) [Ic_S1_P5E.1_K5.1_C5.1_H5.1_A5.1_[T5A]_[T6C]_[A7C]_F5.1_[T8C]_[T9C]_T5.1] | 1280 nM
12 | UCUCUUUGUAUCGGUAUCUCUU (ssRNA) [Ic_S1_P5E.1_K5.1_C5.1_H5.1_A5.1_[T6C]_[A7G]_F5.1_[T8G]_T5.1] | 43.9 nM
13 | UCUCUUUGUAAUCCCAUCUCUU (ssRNA) [Ic_S1_P5E.1_K5.1_C5.1_H5.1_A5.1_[T5A]_[A7C]_F5.1_[T8C]_[T9C]_T5.1] | 868 nM
14 | UCUCUUUGUAAAUCUCUCUU (ssRNA) [Ic_S1_P3E.1_K3.1_C3.1_H3.1_A3.1_[T5A]_F3.1_[A8C]_T3.1] | 343 nM
15 | UCUCUUUGUAUUCCCUUCUCUU (ssRNA) [Ic_S1_P5E.1_K5.1_C5.1_H5.1_A5.1_[A7C]_F5.1_[T8C]_[T9C]_[A10T]_T5.1] | 653 nM
16 | UCUCUUUGUACCAACCUCUCUU (ssRNA) [Ic_S1_P5E.1_K5.1_C5.1_H5.1_A5.1_[T5C]_[T6C]_F5.1_[T8A]_[T9C]_[A10C]_T5.1] | 556 nM

Row | Binder | Kd
17 | UCUCUUUGUACCUAACUCUCUU (ssRNA) [Ic_S1_P5E.1_K5.1_C5.1_H5.1_A5.1_[T5C]_[T6C]_[A7T]_F5.1_[T8A]_[T9A]_[A10C]_T5.1] | 65.6 nM
18 | UCUCUUUGUAACCGCCUCUCUU (ssRNA) [Ic_S1_P5E.1_K5.1_C5.1_H5.1_A5.1_[T5A]_[T6C]_[A7C]_F5.1_[T8G]_[T9C]_[A10C]_T5.1] | 2070 nM
19 | UCUCUUUGUACUCUCGUCUCUU (ssRNA) [Ic_S1_P5E.1_K5.1_C5.1_H5.1_A5.1_[T5C]_[A7C]_F5.1_[T9C]_[A10G]_T5.1] | 70.5 nM
20 | UCUCUUUGUAUAACCUCUCUU (ssRNA) [Ic_S1_P4E.1_K4.1_C4.1_H4.1_A4.1_[T7A]_F4.1_[T8C]_[A9C]_T4.1] | 62.8 nM
21 | UCUCUUUGUAUAUGACUCUCUU (ssRNA) [Ic_S1_P5E.1_K5.1_C5.1_H5.1_A5.1_[T6A]_[A7T]_F5.1_[T8G]_[T9A]_[A10C]_T5.1] | 16.1 nM
22 | UCUCUUUGUAUAACUUCUCUU (ssRNA) [Ic_S1_P4E.1_K4.1_C4.1_H4.1_A4.1_[T7A]_F4.1_[T8C]_[A9T]_T4.1] | 44.2 nM
23 | UCUCUUUGUAAAUUUCUCUU (ssRNA) [Ic_S1_P3E.1_K3.1_C3.1_H3.1_A3.1_[T5A]_F3.1_[A8T]_T3.1] | 16.9 nM
24 | UCUCUUUGUAUAUUAUCUCUU (ssRNA) [Ic_S1_P4E.1_K4.1_C4.1_H4.1_A4.1_F4.1_T4.1] | 0.576 nM
25 | UCUCUUUGUACAGCCAUCUCUU (ssRNA) [Ic_S1_P5E.1_K5.1_C5.1_H5.1_A5.1_[T5C]_[T6A]_[A7G]_F5.1_[T8C]_[T9C]_T5.1] | 316 nM
26 | UCUCUUUGUAAUGCAUUCUCUU (ssRNA) [Ic_S1_P5E.1_K5.1_C5.1_H5.1_A5.1_[T5A]_[A7G]_F5.1_[T8C]_[T9A]_[A10T]_T5.1] | 910 nM
27 | UCUCUUUGUAUAUAGUUCUCUU (ssRNA) [Ic_S1_P5E.1_K5.1_C5.1_H5.1_A5.1_[T6A]_[A7T]_F5.1_[T8A]_[T9G]_[A10T]_T5.1] | 4.66 nM
28 | UCUCUUUGUAUCAGUGUCUCUU (ssRNA) [Ic_S1_P5E.1_K5.1_C5.1_H5.1_A5.1_[T6C]_F5.1_[T8G]_[A10G]_T5.1] | 441 nM
29 | UCUCUUUGUACGGUAAUCUCUU (ssRNA) [Ic_S1_P5E.1_K5.1_C5.1_H5.1_A5.1_[T5C]_[T6G]_[A7G]_F5.1_[T9A]_T5.1] | 16.8 nM
30 | UCUCUUUGUACUGUCAUCUCUU (ssRNA) [Ic_S1_P5E.1_K5.1_C5.1_H5.1_A5.1_[T5C]_[A7G]_F5.1_[T9C]_T5.1] | 116 nM
31 | UCUCUUUGUAACACGGUCUCUU (ssRNA) [Ic_S1_P5E.1_K5.1_C5.1_H5.1_A5.1_[T5A]_[T6C]_F5.1_[T8C]_[T9G]_[A10G]_T5.1] | 2070 nM
32 | UCUCUUUGUACAGUCUUCUCUU (ssRNA) [Ic_S1_P5E.1_K5.1_C5.1_H5.1_A5.1_[T5C]_[T6A]_[A7G]_F5.1_[T9C]_[A10T]_T5.1] | 22.9 nM
